Data published in article PMC9674701, “Cancer cell survival depends on collagen uptake into tumor-associated stroma” (Nature Communications, 2022).

Biological target: FITC-labeled bovine type I Collagen (Chondrex 4001) (bovine, UniProt P02453 162-1217; P02465 80-1117, FITC label (FITC-Col labeled at a 1:1 molar ratio); labelled residues not stated | FITC label (FITC-Col labeled at a 1:1 molar ratio); labelled residues not stated)
Test: cell-based or functional assay

FITC-labeled bovine type I Collagen (Chondrex 4001), sequence (P02453 162-1217, chain 1 of 2): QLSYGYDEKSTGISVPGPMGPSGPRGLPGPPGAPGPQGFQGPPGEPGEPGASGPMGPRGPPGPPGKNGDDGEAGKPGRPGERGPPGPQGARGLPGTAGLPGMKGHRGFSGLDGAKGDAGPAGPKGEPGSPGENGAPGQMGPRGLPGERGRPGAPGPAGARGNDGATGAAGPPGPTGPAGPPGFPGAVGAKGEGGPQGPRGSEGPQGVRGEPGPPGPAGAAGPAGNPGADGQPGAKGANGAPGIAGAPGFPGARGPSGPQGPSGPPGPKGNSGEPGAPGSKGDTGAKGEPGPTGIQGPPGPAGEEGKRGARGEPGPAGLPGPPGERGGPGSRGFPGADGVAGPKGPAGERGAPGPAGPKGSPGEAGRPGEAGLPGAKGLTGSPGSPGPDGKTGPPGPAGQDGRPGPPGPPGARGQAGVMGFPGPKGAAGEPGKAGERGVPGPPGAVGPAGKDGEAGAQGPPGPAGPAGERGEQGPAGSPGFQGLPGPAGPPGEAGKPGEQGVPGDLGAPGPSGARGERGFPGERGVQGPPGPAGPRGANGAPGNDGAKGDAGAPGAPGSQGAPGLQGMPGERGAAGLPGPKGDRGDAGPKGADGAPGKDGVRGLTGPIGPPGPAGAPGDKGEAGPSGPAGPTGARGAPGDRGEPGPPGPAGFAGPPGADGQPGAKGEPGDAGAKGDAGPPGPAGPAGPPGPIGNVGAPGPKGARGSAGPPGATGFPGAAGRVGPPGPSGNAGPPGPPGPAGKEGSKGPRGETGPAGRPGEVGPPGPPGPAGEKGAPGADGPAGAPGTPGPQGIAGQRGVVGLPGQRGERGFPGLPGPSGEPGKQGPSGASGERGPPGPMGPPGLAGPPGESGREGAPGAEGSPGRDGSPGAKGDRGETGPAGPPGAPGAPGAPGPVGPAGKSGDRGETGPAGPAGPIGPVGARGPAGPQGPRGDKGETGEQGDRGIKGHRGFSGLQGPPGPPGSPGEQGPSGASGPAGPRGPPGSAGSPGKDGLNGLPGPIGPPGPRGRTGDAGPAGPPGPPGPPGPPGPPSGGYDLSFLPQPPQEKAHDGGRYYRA
FITC-labeled bovine type I Collagen (Chondrex 4001), sequence (P02465 80-1117, chain 2 of 2): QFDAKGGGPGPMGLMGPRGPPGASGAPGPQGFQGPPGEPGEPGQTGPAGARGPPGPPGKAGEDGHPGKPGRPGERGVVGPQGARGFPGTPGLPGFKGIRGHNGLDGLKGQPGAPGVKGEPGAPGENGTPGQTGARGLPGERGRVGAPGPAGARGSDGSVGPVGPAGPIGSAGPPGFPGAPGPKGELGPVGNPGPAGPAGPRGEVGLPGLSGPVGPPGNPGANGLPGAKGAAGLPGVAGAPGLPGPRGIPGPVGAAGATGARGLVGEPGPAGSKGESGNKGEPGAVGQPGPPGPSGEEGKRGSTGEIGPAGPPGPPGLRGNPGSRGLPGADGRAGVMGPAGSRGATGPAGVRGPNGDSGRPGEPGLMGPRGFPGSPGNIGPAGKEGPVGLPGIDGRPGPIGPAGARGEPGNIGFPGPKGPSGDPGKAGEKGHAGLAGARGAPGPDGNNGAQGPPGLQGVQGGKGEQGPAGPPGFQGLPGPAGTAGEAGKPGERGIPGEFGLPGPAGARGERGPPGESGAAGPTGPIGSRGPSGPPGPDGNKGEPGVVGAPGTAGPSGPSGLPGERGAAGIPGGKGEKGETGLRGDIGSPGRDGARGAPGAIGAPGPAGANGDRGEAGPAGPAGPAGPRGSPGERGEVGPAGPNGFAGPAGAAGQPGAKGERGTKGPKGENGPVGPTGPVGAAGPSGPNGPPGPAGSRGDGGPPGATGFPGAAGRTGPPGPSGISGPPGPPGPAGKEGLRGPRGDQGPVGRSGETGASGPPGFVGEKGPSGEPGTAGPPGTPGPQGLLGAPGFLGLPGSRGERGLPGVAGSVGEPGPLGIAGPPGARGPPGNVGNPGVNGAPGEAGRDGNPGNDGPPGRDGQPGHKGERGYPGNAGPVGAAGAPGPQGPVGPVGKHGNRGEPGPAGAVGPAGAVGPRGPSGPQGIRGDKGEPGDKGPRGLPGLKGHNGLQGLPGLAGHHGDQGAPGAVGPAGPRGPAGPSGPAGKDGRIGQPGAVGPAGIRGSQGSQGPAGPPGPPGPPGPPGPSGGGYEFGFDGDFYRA

- FITC-col internalization assay, flow cytometry of FITC-col trapped inside cells (Fig. 4e): 5 fold
- soluble FITC released into the culture supernatant from a FITC-Col gel, 48 h (Fig. 4d): ~3 fold
B1: TEM8 on TEM8 overexpressing CHO cells (CHO-TEM8), wild type (receptor)
chain: not shown
